Measurements reported in patent US20120189633A1 (KOLLTAN PHARMACEUTICALS, published 2012).
Residue numbers refer to the chain shown, from its start.

B1: antibody 37C (antibody, human IgG1, kappa, V domains shown)
VH: QVQLKQSGAELVRPGASVKLSCKASGYTFTDYYINWVKQRPGQGLEWIARIYPGSGNTYYNEKFKGKATLTAEKSSSTAYMQLSSLTSEDSAVYFCARGVYYFDYWGQGTTLTVSA
VL: DIVMTQSQKFMSTSVGDRVSVTCKASQNVRTNVAWYQQKPGQSPKALIYSASYRYSGVPDRFTGSGSGTDFTLTISNVQSEDLADYFCQQYNSYPRTFGGGTKLEIKR
notes: also called chimeric antibody 37C
B2: antibody 37M (antibody, V domains shown)
VH: B1 VH with A116S
VL: B1 VL

Key:
[1] = biological target: full-length, wild-type human KIT receptor expressed on cells (human, UniProt P10721 26-976); assay: cell-based or functional assay
[2] = biological target: T1, recombinant KIT D4/D5 polypeptide (D4/D5 region of human KIT, V308 to H515, with 5xHis tag) (human, UniProt P10721 26-519); assay: solid phase ELISA, antigen coated on the plate
T1 construct: also called KIT D4/D5 antigen; KIT immunogen
Description: The binding activity of antibodies 37M and 37C obtained from mice immunized with a KIT immunogen containing the D4/D5 region of the human KIT extracellular region was characterized by solid phase ELISA. […] The binding affinity of antibody 37C for an antigen containing the D4/D5 region (see FIG. 2A) of human KIT was also tested by solid phase ELISA. The general protocol used for the solid phase ELISA experiments are described below.
Preparation of antibody sample with serial dilution: Dilution buffer (100 μL) was added to columns 1 and 7 of a 96 well plate, and 50 μL of dilution buffer were added to all the remaining wells. The test antibody (100 μL) was added to the first well containing 100 μL dilution buffer, mixed by pipetting, and 50 μL from the first well were removed and added into the second well and mixed. This dilution step was repeated across the row until the dilution step was repeated for a total of six dilutions. This dilution process was repeated for each sample.
ELISA: The plate with the absorbed antigen was removed from the −80° C. freezer and was allowed to thaw at room temperature. The borate buffer was removed by flicking the plate into the sink and blotting the plate dry. Blocking buffer (200 μL) was added to each well and was allowed to incubate at room temperature for one hour. The blocking buffer was removed, again by flicking the plate into the sink. […]

[3] = biological target: T1, recombinant KIT D4/D5 polypeptide …; assay: competition solid phase ELISA on KIT D4/D5 antigen; 37C titrated alone, without competitor
Description: (§1) Competitive binding assays were carried out with antibody 37M or 37C as described below and using solid phase ELISA as described in Example 2 (Section 6.2). In particular, serial dilutions of the reference antibody (either 37M or 37C) were combined with constant concentrations of a competing antibody (37M in the case of 37C, and 37C in the case of 37M) and incubated in wells of 96-well plates coated with a recombinant KIT polypeptide containing the D4/D5 region depicted in FIG. 2A. Reference antibody binding was then detected through the use of an HRP-conjugated, species-specific secondary antibody. Antibody 37M has a mouse constant region while antibody 37C has a human constant region. Therefore, when antibody 37M was used as a reference antibody and antibody 37C was used as a competing antibody, the reference antibody was detected using an anti-mouse IgG secondary antibody; and when antibody 37C was used as a reference antibody and antibody 37M was used as a competing antibody, the reference antibody was detected using an anti-human IgG secondary antibody. […]
(§2) Eight, 3-fold dilutions of the reference antibody samples were prepared beginning at 20 nM (2×), and combined 1:1 with a 20 nM solution of the competing antibody to yield final 1× values. […] The plates were processed similarly as described above for data collection on a plate reader. […]

[4] = biological target: T1, recombinant KIT D4/D5 polypeptide …; assay: competition solid phase ELISA on KIT D4/D5 antigen; 37C titrated with competitor 37M at 10 nM
Description: as §1, §2

Sequence of full-length, wild-type human KIT receptor expressed on cells (P10721 other isoform, or with tags, fused parts or gaps limits assumed): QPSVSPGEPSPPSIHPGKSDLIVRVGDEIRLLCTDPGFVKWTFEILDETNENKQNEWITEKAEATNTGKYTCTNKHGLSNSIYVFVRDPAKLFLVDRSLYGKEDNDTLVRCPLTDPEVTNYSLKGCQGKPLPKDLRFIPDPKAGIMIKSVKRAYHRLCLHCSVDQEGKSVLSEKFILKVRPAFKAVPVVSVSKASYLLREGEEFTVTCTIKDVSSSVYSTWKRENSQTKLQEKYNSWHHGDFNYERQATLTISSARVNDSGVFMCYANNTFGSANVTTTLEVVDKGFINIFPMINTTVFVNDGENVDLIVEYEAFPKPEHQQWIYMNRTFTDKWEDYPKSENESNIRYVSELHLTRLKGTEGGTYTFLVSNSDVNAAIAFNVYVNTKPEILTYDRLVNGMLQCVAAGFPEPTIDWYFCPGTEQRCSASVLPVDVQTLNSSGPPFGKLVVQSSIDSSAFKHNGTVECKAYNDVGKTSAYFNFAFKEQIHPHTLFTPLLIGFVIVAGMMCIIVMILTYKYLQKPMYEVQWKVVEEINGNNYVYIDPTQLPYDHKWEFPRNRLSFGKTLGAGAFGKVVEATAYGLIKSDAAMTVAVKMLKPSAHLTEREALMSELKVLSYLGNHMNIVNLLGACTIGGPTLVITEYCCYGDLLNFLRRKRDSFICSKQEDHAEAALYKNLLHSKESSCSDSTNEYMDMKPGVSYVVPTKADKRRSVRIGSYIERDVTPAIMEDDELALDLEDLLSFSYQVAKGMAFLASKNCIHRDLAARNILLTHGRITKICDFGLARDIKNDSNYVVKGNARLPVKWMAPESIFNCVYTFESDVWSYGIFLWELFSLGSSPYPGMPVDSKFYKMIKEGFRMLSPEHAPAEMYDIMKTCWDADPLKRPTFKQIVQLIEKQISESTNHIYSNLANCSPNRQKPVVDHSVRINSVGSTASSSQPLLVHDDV
T1 sequence (P10721 other isoform, or with tags, fused parts or gaps): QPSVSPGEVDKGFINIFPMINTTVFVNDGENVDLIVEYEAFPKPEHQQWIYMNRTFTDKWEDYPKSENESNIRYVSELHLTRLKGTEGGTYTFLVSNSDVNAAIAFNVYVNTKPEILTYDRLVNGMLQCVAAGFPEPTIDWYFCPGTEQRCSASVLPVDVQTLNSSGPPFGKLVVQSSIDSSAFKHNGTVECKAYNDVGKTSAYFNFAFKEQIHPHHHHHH

Binder | 50% inhibition concentration (IC50), cell-based phospho-KIT assay, unsorted CHO/KIT-WT cells (FIG. 8) [1] [nM] | IC50, cell-based phospho-KIT assay, sorted (high KIT expression) CHO/KIT-WT cells (FIG. 11B) [1] [nM] | EC50 [2] [nM] | EC50 [3] [nM] | EC50 [4] [nM]
B1 | ~0.167 | ~0.334 | ~0.196 | 0.048 | 1
B2 | – | ~0.315 | – | – | –
